According to patent publication US9540424B2, “Serum albumin binding molecules” (BRISTOL-MYERS SQUIBB COMPANY, priority 2010, dated 2017):
Several values for one entry are separate records, joined by “and”; a condition that tells them apart may be missing. Equal entries are not always repeated. Each block holds one molecule with its values, some of them ahead of it.

What was measured:
[1] = system: HEK cells stably expressing human β-klotho; assay: HEK β-Klotho pERK 1/2 assay; type: cell-based; conditions: same dilutions as in parental HEK cells
Procedure: FGF21 induces ERK phosphorylation in the presence of β-klotho. Accordingly, the present HEK-β-klotho assay system was constructed to examine the functional activity of the FGF21-SABA fusions in vitro. Specifically, in vitro activity, potency (EC50) and efficacy (as a percentage of maximal activity observed from an FGF21 molecule that is not fused to a SABA), were determined for the SABA1-FGF21v1 (SEQ ID NO: 132) fusion protein, as measured in the HEK β-Klotho expressing stable cell pERK 1/2 assay using the non-fused His-tagged FGF21 (“FGFv1”; SEQ ID NO: 125) as a comparator.
A HEK cell line stably expressing human β-klotho was constructed. The human β-klotho construct encoded the full length protein under the control of a CMV promoter with a C-terminal FLAG tag. HEK 293 cells were transfected with the linearized cDNA using Lipofectamine 2000 (Invitrogen catalog #11668027) following the manufactures protocol using standard techniques. Positive clones were isolated after 14 days of selection in 600 ug/ml (Invitrogen catalog #10131) of geneticin in Dulbecco's Modified Eagle Medium with high glucose containing L-Glutamine, Hepes (Invitrogen catalog #12430054) and 10% FBS (HyClone catalog # SH30071). Positive stable clones were further characterized by Western Blot analysis and p-ERK activation by AlphaScreen (Perkin Elmer catalog # TGRES50K) analysis.
HEK cells stably expressing human β-klotho were plated at 20,000 cells/well in 96 well tissue culture plates in DMEM high glucose media (Gibco) containing 10% (v/v) FBS (Hyclone) and 600 μg/ml G418 (Gibco). The following day, the media was removed and replaced with DMEM high glucose media without serum and the cells were incubated overnight. The morning of the third day the serum free media was removed and the cells were incubated for a total of seven minutes with dilutions of the proteins made in PBS containing 3% (w/v) fatty acid free human serum albumin. Dilutions were tested in triplicate, one well on each of three plates. At the end of the seven minute incubation, the protein dilutions were removed and 100 μl of 1x AlphaScreen lysis buffer (Perkin-Elmer) was added per well and allowed to incubate with shaking for approximately 10-15 minutes. The plates containing the cellular lysates were frozen at −80° C. for at least 30 minutes or until ready to assay. Four μl from each well of thawed cell lysate was analyzed for pERK 1/2 using the Surefire AlphaScreen pERK 1/2 kit (Perkin Elmer) using 384 well white Proxiplates (Perkin Elmer) following the manufacturer's directions. Plates were incubated at room temperature for two hours in the dark and then read on an Envision 2103 Multiplate reader (Perkin Elmer). Data were analyzed using Graph Pad Prism software using a non-linear regression analysis.

[2] = system: parental HEK cells, which do not express β-klotho; assay: pERK 1/2 specificity assay in parental HEK cells; type: cell-based, human
From the text: FGF1 was used as a positive control in those experiments.

[3] = Analytical size exclusion chromatography (SEC) of SABAs; type: physicochemical; conditions: midscaled material
Procedure: Size exclusion chromatography (SEC) was performed on the SABAs resulting from the HTPP. SEC of HTPP derived material was performed using a Superdex 200 5/150 or Superdex 75 5/150 column (GE Healthcare) on an Agilent 1100 or 1200 HPLC system with UV detection at A214 nm and A280 nm and with fluorescence detection (excitation=280 nm, emission=350 nm). A buffer of 100 mM sodium sulfate, 100 mM sodium phosphate, 150 mM sodium chloride, pH 6.8 at appropriate flow rate of the SEC column employed. Gel filtration standards (Bio-Rad Laboratories, Hercules, Calif.) were used for molecular weight calibration.
Midscale expression and purification yielded highly pure and active Adnectins™ that were expressed in a soluble form and purified from the soluble fraction of the bacterial cytosol.
Standard size exclusion chromatography (SEC) was performed on the candidate SABAs resulting from the midscale process. SEC of midscaled material was performed using a Superdex 200 10/30 or on a Superdex 75 10/30 column (GE Healthcare) on an Agilent 1100 or 1200 HPLC system with UV detection at A214 nm and A280 nm and with fluorescence detection (excitation=280 nm, emission=350 nm). A buffer of 100 mM sodium sulfate, 100 mM sodium phosphate, 150 mM sodium chloride, pH 6.8 at appropriate flow rate of the SEC column employed. Gel filtration standards (Bio-Rad Laboratories, Hercules, Calif.) were used for molecular weight calibration.

[4] = Differential Scanning calorimetry (DSC) thermostability of midscaled SABAs; type: physicochemical; conditions: 1 mg/ml solution, 5° C. to 95° C. at 1 degree per minute
Procedure: Differential Scanning calorimetry (DSC) analyses of the midscaled SABAs were performed to determine their respective Tm's. A 1 mg/ml solution was scanned in a N-DSC II calorimeter (calorimetry Sciences Corp) by ramping the temperature from 5° C. to 95° C. at a rate of 1 degree per minute under 3 atm pressure. The data was analyzed vs. a control run of the appropriate buffer using a best fit using Orgin Software (OrginLab Corp).

RhSA = RhSA (Macaca mulatta, UniProt Q28522); assay: Biacore kinetics of SABAs on immobilized serum albumin: RhSA; type: binding, rhesus
RhSA, sequence (Q28522 17-600): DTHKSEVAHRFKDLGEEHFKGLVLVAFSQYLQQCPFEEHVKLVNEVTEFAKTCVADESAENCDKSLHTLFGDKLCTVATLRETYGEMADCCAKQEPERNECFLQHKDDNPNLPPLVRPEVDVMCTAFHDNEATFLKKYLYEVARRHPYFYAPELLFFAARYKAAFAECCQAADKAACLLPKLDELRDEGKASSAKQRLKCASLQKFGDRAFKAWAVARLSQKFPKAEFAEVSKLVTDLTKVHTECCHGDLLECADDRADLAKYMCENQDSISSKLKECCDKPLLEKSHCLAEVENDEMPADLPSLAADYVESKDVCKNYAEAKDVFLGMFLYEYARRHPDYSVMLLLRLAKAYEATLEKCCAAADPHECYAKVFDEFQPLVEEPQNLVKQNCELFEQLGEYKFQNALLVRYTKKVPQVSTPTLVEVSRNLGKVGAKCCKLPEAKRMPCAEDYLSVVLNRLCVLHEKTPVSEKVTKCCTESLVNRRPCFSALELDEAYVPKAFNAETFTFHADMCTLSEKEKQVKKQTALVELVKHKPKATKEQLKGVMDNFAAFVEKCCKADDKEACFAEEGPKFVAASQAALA
Procedure: (§4) In addition, binding to albumin was carried out under various pH conditions ranging from pH 5.5 to pH 7.4.

MuSA [5] = target: T1, MuSA (Mus musculus, UniProt P07724); assay: Biacore kinetics of SABAs on immobilized serum albumin: MuSA; type: binding
T1 sequence (P07724 25-608): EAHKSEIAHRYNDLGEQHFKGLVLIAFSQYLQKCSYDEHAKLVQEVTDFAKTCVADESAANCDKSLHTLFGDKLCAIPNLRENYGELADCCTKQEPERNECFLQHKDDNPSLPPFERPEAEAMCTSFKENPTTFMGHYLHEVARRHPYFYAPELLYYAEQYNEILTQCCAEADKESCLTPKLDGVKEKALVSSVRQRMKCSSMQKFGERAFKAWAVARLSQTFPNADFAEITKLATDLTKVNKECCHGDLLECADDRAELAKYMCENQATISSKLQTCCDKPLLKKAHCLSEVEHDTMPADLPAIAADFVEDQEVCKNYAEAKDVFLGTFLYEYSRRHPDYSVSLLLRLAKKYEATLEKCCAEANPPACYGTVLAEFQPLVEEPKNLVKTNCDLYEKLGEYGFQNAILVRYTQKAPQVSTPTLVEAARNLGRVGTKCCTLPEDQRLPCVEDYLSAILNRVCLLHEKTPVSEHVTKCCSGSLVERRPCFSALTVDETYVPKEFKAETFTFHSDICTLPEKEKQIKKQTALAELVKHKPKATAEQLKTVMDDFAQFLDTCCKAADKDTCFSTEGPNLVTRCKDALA

[6] = Half-life of HSA and of SABA1-4 with or without HSA in mice (ELISA, WinNonlin); type: in vivo, Ncr nude female mice; conditions: for half-life in mice plasma: injected without HSA; for increase in half life when co-injected with HSA: with HSA vs without HSA, mice
Procedure: The pharmacokinetic parameters of each Adnectin™ were determined using non-compartmental modeling with WinNonlin software.

[7] = Single dose pharmacokinetics of SABA1.1 and SABA5.1 in cynomolgus monkeys; type: in vivo; conditions: 1 mpk IV
Procedure: The pharmacokinetics were evaluated using a quantitative ELISA-based assay that was developed to detect the Adnectin™ in plasma samples.

HSA [8] = target: T2, HSA (Homo sapiens, UniProt P02768)
Procedure: as §4

HSA [9] = target: T2, HSA; assay: SPR (Biacore T100) kinetics of FGF21-SABA1 fusions: HSA; type: binding; conditions: 37° C.
Procedure: (§1) The binding competency and thermodynamic characterization of FGF21-SABA fusion variants to human serum albumin were performed using Isothermal Titration calorimetry on a Microcal VP-ITC instrument (Microcal Inc. Amherst Mass., USA). […] The detailed experimental conditions are described below.
(§2) For the calorimetry assay, the FGF21-SABA variant SABA1-FGF21v1 (SEQ ID NO: 132) was used. […] For the SPR studies, SABA1-FGF21v1 and SABA1-FGF21v3 (SEQ ID NO: 134) were examined.
(§3) Serum albumins were dissolved in PBS buffer (10 mM sodium phosphate, 130 mM sodium chloride, pH 7.1) to a concentration of 10 mg/ml, and subsequently diluted to 8-10 μg/ml in 10 mM sodium acetate pH 5.0 for immobilization. Serum albumins were immobilized on a Series S CMS sensor chip using standard ethyl(dimethylaminopropyl) carbodiimide (EDC)/N-hydroxysuccinimide (NHS) chemistry in HBS-EP+ running buffer at 25° C., following general manufacturer guidelines. Flow cell 1 was activated with EDC/NHS and blocked with ethanolamine. […] Kinetic experiments were performed in PBS buffer containing 0.05% tween-20 (running buffer) at either 25° C. or 37° C. […] These samples were injected across flow cells 1-4 for 300 s, with a 420 s dissociation time, at flow rates of 30 μl/min or 60 μl/min to check for mass transfer limitation. All surfaces were regenerated with 2 pulses of 10 mM glycine pH 2.0 at 30 μl/min for 30 s. Raw sensograms were “double-referenced” by subtracting flow cell 1 data from flow cell 2, 3 or 4 data, and then subtracting a separate buffer cycle from each sensogram. The double-referenced sensogram data was fitted to a 1:1 Langmuir model using Biacore T100 Evaluation software version 2.0.2 to determine the association rate constant (ka), the dissociation rate constant (kd), and the equilibrium dissociation constant (KD).

CySA = target: T3, CySA (Macaca fascicularis, UniProt A2V9Z4); assay: SPR (Biacore T100) kinetics of FGF21-SABA1 fusions: CySA; type: binding, cynomolgous monkey; conditions: 37° C.
T3 construct: purchased Equitech-Bio CMSA
T3 sequence (A2V9Z4 25-608): as the sequence (Q28522 17-600) above
Procedure: as §1, §2, §3

[10] = Pharmacokinetics of His-tagged FGF21 and SABA-FGF21 fusions in monkeys; type: in vivo, cynomolgus monkeys; conditions: monkeys
Procedure: Various in vivo studies were conducted in mice and monkeys to characterize the pharmacokinetics of His-tagged FGF21 and SABA1-FGF21v1. An ELISA-based ligand binding assay was used to measure the His-tagged FGF21 and SABA1-FGF21v1 in all mouse and monkey plasma samples.
Following subcutaneous administration, His-tagged FGF21 was well absorbed.
Following subcutaneous administration, SABA1-FGF21v1 was well absorbed.

MuSA [11] = target: T1, MuSA; assay: SPR (Biacore T100) kinetics of FGF21-SABA1 fusions: MuSA; type: binding, murine; design: purchased Sigma A3559; conditions: 37° C., up to 1 uM analyte
Procedure: as §1, §2, §3

[12] = co-injected with HSA (3-4 molar excess), tail vein
[13] = intravenous, His-tagged FGF21 0.5 mg/kg, SABA1-FGF21v1 0.08 mg/kg

Molecule: FGF1: positive control in the pERK specificity assays [reference compound]
activity in HEK β-klotho stable cells (specificity experiment) [1]: showed activity
stimulation of pERK 1/2 levels in parental HEK cells [2]: did

B3: SABA1.1: core SABA1 with N-terminal MGVSDVPRDLE, C-terminal EIDKPSQ and His6 tag; SEQ ID NO: 89 (protein)
chain: MGVSDVPRDLEVVAATPTSLLISWHSYYEQNSYYRITYGETGGNSPVQEFTVPYSQTTATISGLKPGVDYTITVYAVYGSKYYYPISINYRTEIDKPSQHHHHHH
SEC Dimer (%) [3]: 7.7%
SEC Monomer (%) [3]: 92.3%
DSC (Tm) [4]: 63.9 °C
cross reaction with RhSA (RhSA): cross reacted
cross reaction with MuSA (MuSA [5]): did not cross react
PK (T½) Mice [6, 12]: 5.6 h
half-life in mice plasma [6]: 0.56 h
increase in half life when co-injected with HSA [6]: ~10 fold
AUCall ([7]; individual monkeys #1 and #2): 673.7 µg·h/mL and 625.1 µg·h/mL
Cl_obs ([7]; individual monkeys #1 and #2): 1.45 mL/h/kg and 1.60 mL/h/kg
Cmax ([7]; individual monkeys #1 and #2): 9030 ng/mL and 7240 ng/mL
Vz_obs ([7]; individual monkeys #1 and #2): 0.2008 L/kg and 0.3152 L/kg
t½ ([7]; individual monkeys #1 and #2): 95.8 h and 136.6 h
Resistant to pH 7.4→5.5? (HSA [8]; binding to HSA from pH 7.4 down to pH 5.5, symbols not defined): fits biochemical criteria for pH resistance and affinity/kinetics down to pH 5.5

B4: SABA1-FGF21v3: SABA1-FGF21 fusion, SEQ ID NO: 134; 299 aa; DNA SEQ ID NO: 177 (protein)
chain: MGVSDVPRDLEVVAATPTSLLISWHSYYEQNSYYRITYGETGGNSPVQEFTVPYSQTTATISGLKPGVDYTITVYAVYGSKYYYPISINYRTEIDKPSQHHHHHHGSGSGSGSGSGSGSPIPDSSPLLQFGGQVRQRYLYTDDAQQTEAHLEIREDGTVGGAADQSPESLLQLKALKPGVIQILGVKTSRFLCQRPDGALYGSLHFDPEACSFRELLLEDGYNVYQSEAHGLPLHLPGNKSPHRDPAPRGPARFLPLPGLPPALPEPPGILAPQPPDVGSSDPLSMVGPSQGRSPSYAS
ka (HSA [9]; flow rate 30 μl/min): 6160 M⁻¹ s⁻¹
kd (HSA [9]; flow rate 30 μl/min): 0.00103 s⁻¹
ka (HSA [9]; flow rate 60 μl/min): 5870 M⁻¹ s⁻¹
kd (HSA [9]; flow rate 60 μl/min): 0.00107 s⁻¹
ka (CySA; flow rate 30 μl/min): 5310 M⁻¹ s⁻¹
kd (CySA; flow rate 30 μl/min): 0.0117 s⁻¹
ka (CySA; flow rate 60 μl/min): 4380 M⁻¹ s⁻¹
kd (CySA; flow rate 60 μl/min): 0.0136 s⁻¹
increase of t1/2 compared to His-tagged FGF21 [10]: ~27 fold
CL (total body plasma clearance, CLTp) [10, 13]: 2.4 mL/h/kg
T½ (terminal half-life) [10, 13]: 52.7 h
Vdss (steady-state volume of distribution, Vss) [10, 13]: 0.11 L/kg
binding to MuSA (MuSA [11]; flow rate 30 μl/min): no binding observed up
binding to MuSA (MuSA [11]; flow rate 60 μl/min): no binding observed up

Further lines, with some results ahead:

cross reaction with RhSA (RhSA): cross reacted
cross reaction with MuSA (MuSA [5]): did not cross react
B1: SABA3.1: His-tagged SABA3 sequence (protein)
chain: MGVSDVPRDLEVVAATPTSLLISWSNDGPGLSYYRITYGETGGNSPVQEFTVPSSQTTATISGLKPGVDYTITVYAVSYYTKKAYSAGPISINYRTEIDKPSQHHHHHH
modifications: His6 tag
SEC Dimer (%) [3]: BLD
SEC Monomer (%) [3]: 99%
DSC (Tm) [4]: 65.2 °C
PK (T½) Mice ([6]; co-injected with HSA): 0.533 h
PK (T½) Mice [6, 12]: 0.53 h
half-life in mice plasma [6]: 0.28 h
Comments: T½ in mice in words ([6]; mouse, in vivo): Poor T½ observed in mice
increase in half life when co-injected with HSA [6]: ~2 fold

Comments: binding affinity for RhSA (RhSA): Poor binding affinity for RhSA.
cross reaction with RhSA (RhSA): cross reacted
cross reaction with MuSA (MuSA [5]): did not cross react
Comments: decrease in KD observed at pH <6.0 (HSA [8]; pH <6.0): >2-fold decrease in KD observed at
B2: SABA5.1: His-tagged SABA5 sequence (protein)
chain: MGVSDVPRDLEVVAATPTSLLISWEDDSYYSRYYRITYGETGGNSPVQEFTVPSDLYTATISGLKPGVDYTITVYAVTYDVTDLIMHEPISINYRTEIDKPSQHHHHHH
modifications: His6 tag
SEC Dimer (%) [3]: 12%
SEC Monomer (%) [3]: 88%
DSC (Tm) [4]: 70.1 °C
PK (T½) Mice [6, 12]: 4.6 h
AUCall ([7]; Mean, N 2): 246.882 µg·h/mL
Cl_obs ([7]; Mean, N 2): 4.089 mL/h/kg
Cmax ([7]; Mean, N 2): 17358 ng/mL
HL_Lambda_z ([7]; Mean, N 2): 12.186 h
Vz_obs ([7]; Mean, N 2): 0.072507 L/kg
